Experiment: yeast display, Sf9 membrane polyspecificity reagent, FACS + sequencing; frameworks hold sequencing errors
Summary of the method: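 Sorting gates, low and high (top ~1%), were placed on anti-HA fluorescence to track expression and on streptavidin fluorescence to track reagent binding. A clone's polyreactivity label is taken from the gate it came out of. The reagent was 10% biotinylated, detergent-solubilized Sf9 membrane, applied for 1 hour at 4 °C to galactose-induced yeast display cells.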

QVQLVESGGGLVQAGGSLRLSCAASGSTFTTYAMGWYRQATGKERELVASITWRGGSTYADSVKGRFTISRDNAKNTVYLEMNSLKPEDTAVYYCAAATRASAQFPRQRYYYWGQGTQVTVSS
polyreactivity (PSR sort gate): high polyreactivity

QVQLVESGGGLVQAGGSLRLSCAASGFIFSRYPMGWYRQAPGKERELVASISWRGGSTSYADSVKGRFTISRDNAKNTVYLQMNSLKPEDTAVYYCAASSRQVLEYDYWGQGTQVTVSS
polyreactivity (PSR sort gate): high polyreactivity

QVQLVESGGGLVQAGGSLRLSCAASGRIIDLNAMGWYRQAPGKERQLVAAISYSGGRTFYADSVKGRFTISRDNAKNTVYLQMNSLKPEDTAVYYCNARYGKPAYQYGMDYWGQGTQVTVSS
polyreactivity (PSR sort gate): low polyreactivity

QVQLVESGGGLVQAGGSLRLSCAASGRIFGPYAMGWSRQAPGKERELVASISYSGGSTYYADSVKGRFTISRDNAKNTVYLQMNSLKPEDTAVYYCNALSRTAWSYYLYPSTPFDYWGQGTQVTVSS
polyreactivity (PSR sort gate): low polyreactivity

QVQLVESGGGLVQAGGSLRLSCAASGSIFSYYAMGWSSQAPGKERELVAAISKRGASTYYADSVKGRFSISRDIAKNTVYLQMNSLKPEDTAVYYCAAYRQGSAYDYWGKGTQVTVSS
polyreactivity (PSR sort gate): high polyreactivity

QVQLVESGGGLVQAGGSLRLSCAASGPTFTYNAMGWYRQAPGKERELVATINSVDSTYADSVKGRFTISRDNAKNTVYLQMNSMKPEDTAVYYCNAGFPLSLWLGDYWGQGTQVTVSS
polyreactivity (PSR sort gate): low polyreactivity

QVQLVESGGGLVQAGGSLRLSCAASGSILGGNSMGWYRQATGKERVLVAAITFSGGGTYYADSVKGRFTISRDNAKKTVYLQMNSLKPEDSAVYYCAADKDGYTYEFDYWGQGTQVTVSS
polyreactivity (PSR sort gate): low polyreactivity

QVQLVESGGGLVQAGGSLRLSCAASGRTLRRYAMGGYRQAPGKERELVAAISSGVSTNYADSVKGRFTISRDNAKNTVYLQMNSLKPEDTAVYYCNKKRPVYALSIVPYYSWGQGTQVTVSS
polyreactivity (PSR sort gate): high polyreactivity

QVQLVESGGGLVQAGGSLRLSCAASGITFGWNAMGWYRQAPGKEWELVAAITEDGYSTYYADSVKGRFTISRDNEKNTVYLQMNSLKPEDTAVYYCAAEYYDVYTYVQYDSWGQGTQVTVSS
polyreactivity (PSR sort gate): high polyreactivity

QVQLVESAGGLVQAGGSLRLSCAASGIIFTYYAMGWYRQAPGKERELVAAISSSSGSTYYADSVKGRFTISRDNAKNTVYLQMNSLKPEDTAVYYCAAAFSQYSTSYYYWGQGTQVTVSS
polyreactivity (PSR sort gate): high polyreactivity

QVQLVESGGGLVQAGGSLRLSCAASGRIIYINAMGWYRQAPGKERELVAAISSDGNTNYADSVKGRFTISRDNAKNTVYLQMNSLKPEDTAVYYCNADVWFYYTFDYWGLGTQVTVSS
polyreactivity (PSR sort gate): low polyreactivity

QVQLVESGGGLVQAGGSLSLSCAATGSIFPPNAMGWYRQAPGKEREFVASITSSGGITNYADSVKGRFTISRDTAKNTVYLQMNSLKTEDTAVYYCAAKYYGGTRFRPYGYWGQGTQVTVSS
polyreactivity (PSR sort gate): high polyreactivity

QVQLVESGGGLVQAGGSLRLSFAASGRIFDYNVMGWYRQAPGKERELVADITSSGGATYYADSVKGRFTNSRDNAKNTVYLQMNSLKPEDTAVYYCYISYFTFYDDFYYWGQGTQVTVSS
polyreactivity (PSR sort gate): low polyreactivity

QVQLVESGGGLVQAGGSLRLSSAASGFTFVINDMGWYRPAPGKERELVADITSGGDTYYADSVKGRFTISRDNAKNTVYLQMNSLKPEDTAVYYCAADIYPDWIYLLYGYWGQGTQVTVSS
polyreactivity (PSR sort gate): low polyreactivity

QVQLVESGGGLVQAGGSLRLSCAASGFIFVYNSMGWSRPAPGKEREFVASITWSGGRTYYADSVKGRFTISRDNAKNTVYLQMNSLKREVTAVYFCATKYPNSQVRRYDYWGQGTQVTVSS
polyreactivity (PSR sort gate): low polyreactivity

QVQLVESGGGLVQAGGSLRLSCAASGRISVFYTRGWYRQAPGKERELVAVIRTSGGRTNYADSVKGRFTISRDNAKNTVYLQMNSLKPEDTAVYYCAARVVRYGYKYYYWGQGTQVTVSS
polyreactivity (PSR sort gate): low polyreactivity

QVQLVESGGGLVQAGGSLRLSCAASGITFRYYTMGWYRQAPGKERELVAAISSSGGSTYYADSVKGRFTISRDNAKNTVYLQMNSLKPEDTAVYYCAAESKYATSSPRRDYWGQGTQVTVSS
polyreactivity (PSR sort gate): high polyreactivity

QGQLVESGGGLVQAGGSLRLSCAASGFTFNYYAMGWSRQAPGKERELVAAISWRGGSTSYADSVKGRFTISRDNAKNTVYLQMNSLKPEDTAVYYCNAGYSGIYYFAGDYWGQGTQVTVSS
polyreactivity (PSR sort gate): high polyreactivity

QVQLVESGGGLVQAGGSLRLSCAASGSIFPEYVMGWYRQAPGKERELVAAISWSGGSTYYADSVKGRFTISRDNAKNTVYLQMNSLKPEDTAVYYCNRVPSWRIDYDYWGQGTQVTVSS
polyreactivity (PSR sort gate): low polyreactivity

QVQLVESGGGLVQAGGSLRLSCAASRSIFGTYAMGWYRQAPGKERELVAAISYSGGSTYYADSVKGRFTISRDNGKYTVYLQMNSLKPEDTAVYYCNKSRFYWGYYWGQGTQVTVSS
polyreactivity (PSR sort gate): low polyreactivity

QVQLVESGGGIVQAGGSLRLSCAASGSTFESNAMGSYRQAPGKERELVAAISRGGNTYYADSVKGRFTISRDNAKNTVYLQMNSLKPEDTAVYYCNVDRGNPVQPSEYWGQGTQVTVSS
polyreactivity (PSR sort gate): low polyreactivity

QVQLVESGGGLVQAGGSLRLSCAASGSTFDDNAMGWYRQAPGKERELVAGISTNGGSTSYADSVKGRFTISRDNAKNTVYLQMNSLKPEDTAVYYCAKGMYVQFDYWGQGTQVTVSS
polyreactivity (PSR sort gate): low polyreactivity

QVQLVESGGGLVQAGGSLRLSCAASGYIFPYNVMGWSRQAPGKERELVAAITWRVVRTYYADSVKGRFTISRDNAKNTVYLQMNSLKPEDTAVYYCAALSRQSGDYWGQGTQVTVSS
polyreactivity (PSR sort gate): high polyreactivity

QVQLVESGGGLVQAGGSLRLSCAASGNIFVVNAMGWYRQAPGKERELVAGITTNGGRTFYADSVKGRFTISRDNAKNTVYLQINSLKPEDTAVYYWNARHGRHRRTRFAKYDYWGQGTQVTVSS
polyreactivity (PSR sort gate): high polyreactivity

QVQLVESGGGLVQAGGSLRLSCAASGRIFGGYVMGWYRQAPGKERELVAAISKRGDSTYYADSVKGRFTISRDNAKHTVYLQMNSLKPEDTAVYYCAAVRRGDRGTDMDYWGQGTQVTVSS
polyreactivity (PSR sort gate): high polyreactivity

QVQLVESGGGLVQAGGSLRLSCAASGRIVRFYGMGWYRQAPGKERELVAAITDGCGTNYADSVKGRFSISRDNAKNTVYLQMNSLKPEDTAVYYCAADSRFVWSGEYWGQGTQVTVSS
polyreactivity (PSR sort gate): low polyreactivity

QVQLVESGGGLVQAGGSLRLSCAASGSTFTSNVMGWYRQAPGKERELVAAISTNGGRTYYADSVKGRFTISRDNAKNTVYLQMNSLKPEDTAVYYCAASLPRPGIGGRDYWGQGTQVTVSS
polyreactivity (PSR sort gate): low polyreactivity

QVQLVESGGGLVQAGGSLRLSCAASGSIFEFYTMGWYRQAPGKERELVAAITASGGSTYYADSVKGRFTISRDNAKNTVYLQMNSLKPEDTAVYYCAARFRKQSKTPSPRRYDSWGQGTQVTVSS
polyreactivity (PSR sort gate): high polyreactivity

QVQLVESGGGLVQAGGSLRLSCAASGLIFSYYAMGWYRQAPGKETELVAGITRSGASTYADSVKGRFTISRDNAKNTVYLQMNSLKPEDTAVYYCAADWHYLGWFWQYSKYDYWGQGTQVTVSS
polyreactivity (PSR sort gate): high polyreactivity

QVQLVESGGGLVQAGGSLRLSCAASGSIFYPYAMGWYRPAPGKERELVAGITGGGRTYYADSVKGRFTISRDNAKNTVYLQMNSLKPEDTAVFYCAAVDFVSYYIPFHYEYYWGQGTQVTVSS
polyreactivity (PSR sort gate): low polyreactivity

QVQHVESGGGLVQAGGSLRLTCAASGRTFGVYAMGWYRQAPGKEREFVAVISWSDDSTYYADSVKGRFTISRDYAKNTVNLQMNSLKPEDTAVYYCNADDYLVYSGSHYGYWGQGTQVTVSS
polyreactivity (PSR sort gate): low polyreactivity

QVQLEETRGGLVQAGGSLRLSCAASGLFFGTYAMGWYRQPPGKEWELVAGITSSGGTTYYADSVKGRFTISRDNAKNTVYLQMNSLKPEDTAVYYCNARAVQSRYGYYYWGQGTQVTVSS
polyreactivity (PSR sort gate): low polyreactivity

QVQLVESGGGLVQAGGSLSLSCAASGSPFLYYTMGWYRQAPGKERELVATISRDGSTNYADSVKGRFTISRDNAKNSVYLQMNSLKPEDTAVYYCAAARDSIGYGQYDYWGQGTQVTVSS
polyreactivity (PSR sort gate): low polyreactivity

QVQLVESGGGLVQAGGSLRLSCAASGITIVRNAMGWYRQAPGKERELVAAISSGGSTYYADSVKGRFTISRDNAKISVYLQMNSLKPEDTAVYYCAAVPEYYEYSPYDYWGQGTQVTVSS
polyreactivity (PSR sort gate): low polyreactivity

QVQLVESGGGLVQAGGSLRLSCAASGSIFKKYAMGWYRQAPGKERELFAAITRGTYYADSVKGRFTISRDNAKNTVYFQMNSLKPEDTAVYFCNREYWGRGYYRVRGEYDYWGQGTQVTVSS
polyreactivity (PSR sort gate): low polyreactivity

QVQLVESGGGLVQAGGSLRLSCAASGRTFFIYAMGWYRQAPGKERELVAAIRWRGGSTYYADSVKGRFTISRDNAKNTVYLQMNSLKPEDTAVYYCAASTRQARYEDYYWGQGTQVTVSS
polyreactivity (PSR sort gate): high polyreactivity

QVQLVESGGGLVQAGGSLRLSCAASGRIFYRYAMGWYRQAPGKERELVAGISNSGGSTYYADSVKGRFTISRDNAKNSVYLQRNSLKPEDTAVYYCARLSTKPLPYDYWGQGTQVTVSS
polyreactivity (PSR sort gate): high polyreactivity

QVQLVESGGGLVQAGGSLRLSCAASGRIFQPYTMGWYRQAPGKERELVAAITRSGGSTYYADSVKGRFTISRDNAKNTVYLQMNSLKPEDTAVYYCAADSRPYGKYDYWGQGTQVTVSS
polyreactivity (PSR sort gate): high polyreactivity

QVQLVESGGGLVQAGGSLRLSCAASGSTFQTYAMGWFRQAPGQERELVAAITSGGSTNYADSVKGRFTISRDNAKNTVSLQMNSLKPEDTAVYYCNKKSRRQYDYWGQGTQVTVSS
polyreactivity (PSR sort gate): low polyreactivity

QVQLVESGGGLVQAGGSLRLSCAASGRTFRTYDMGWYRQEPGKERELVAAITSRAGSTYYADSVKGRFTISRDNAKNTVFLQMNRLKPEDTAVYYCAKQYYYGWYWGEDYWGQGSQVTVSS
polyreactivity (PSR sort gate): low polyreactivity

QVQLVESAGGLVQAGGSLRVRCAASGGIFSGNDMGWYRQAPGKERELVATITSDGSTNYADSVKGRFTISRDNAKNTVYLQMNSLKPEDTAVYYCAADGLYWWMYYWGQGTQVTVSS
polyreactivity (PSR sort gate): low polyreactivity

QVQLVESGGGLVQAGGSLRLSCAASGFIFSKYTMGWSRQAPGKERELVASISWSGGSTYYADSVKGRFTISRDTAKNTVFLQMNSLKPEDTAVYYCAAEAWGWVFGGYYYWGQGTQVTVSS
polyreactivity (PSR sort gate): low polyreactivity

QVQLVESGGGLVQAGGSLRLSCAASGRIFGVYAMGWYRQAPGKERELVAAIYSGSSTYYADSVKGRFTISRDNAKNTVYLHMNSLKPEDTAVYYCAAVSRDDNYQDYYYWGQGTQVTVSS
polyreactivity (PSR sort gate): low polyreactivity

Source: the nanobody polyreactivity screen of Harvey et al. (2022)
